Several values for one entry are separate records, joined by “and”; a condition that tells them apart may be missing. Identical values can stand only once. Like-named read-outs stand apart in the source and are kept apart here.
How the values were obtained:
Cys30 [1] = molecular target: T1, Cys30 (UniProt position 49, FFSFFCPHCYQ); assay: UV-vis; details: room temperature, 200 mM KCl plus buffer salts, 10 mM dipotassium phosphate, 10 mM monopotassium phosphate, 10 mM sodium citrate, 10 mM Tris, 1 mM EDTA, Reduced DsbA (DTT-reduced, reagent removed), with oxidised DsbA (Cu(II)-phenanthroline-oxidised) as reference
Cys30 [2] = molecular target: T1, Cys30; details: not stated (literature values for wild-type EcDsbA); cited from earlier work

Substance “EcDsbA E24A (Escherichia coli (K-12); E24A)” has a pKa (Cys30 [1]) of 3.7 ± 0.1.
Work on “EcDsbA E24A/E37A/K58A (Escherichia coli (K-12); E24A;E37A;K58A)” yielded a pKa (Cys30 [1]) of 3.5 ± 0.1.
With “EcDsbA E24A/K58A (Escherichia coli (K-12); E24A;K58A)” the pKa (Cys30 [1]) was 3.5 ± 0.1.
“EcDsbA E37A (Escherichia coli (K-12); E37A)” gave a pKa (Cys30 [1]) of 3.3 ± 0.1.
“EcDsbA K58A (Escherichia coli (K-12); K58A)” showed a pKa (Cys30 [1]) of 3.4 ± 0.1.
For “Thiol:disulfide interchange protein DsbA (EcDsbA), wild type (Escherichia coli (K-12))”, the pKa (Cys30 [1]) is given as 3.3 ± 0.1 and the pKa (Cys30 [2]) is given as 3.55 ± 0.02 and ~3.4.

Reference: paper PMC9952396
